Assay results taken from US20060257407A1 (Janssen / Centocor, published 2006).
Where two headings read alike, the source gives them in different places.

Experiments:
recombinant human IL-6 [1] = molecular target: T1, recombinant human IL-6 (human, UniProt P05231 30-212); experiment: KinExA 3000, IgG at 200 pM mixed with 100-200 pM human IL-6, free IgG over time
T1 construct: Bought from R&D Systems (206-IL-010); Biotinylated or coupled to beads in some assays; also called hIL-6; rhIL-6
Protocol: (§1) To measure kₒₙ, individual IgGs at 200 pM were mixed with 100-200 pM of human IL-6 and the unbound IgG was detected by binding to human IL-6 covalently coupled to alzactone beads on the KinExA 3000 instrument. A series of measurements were taken over time. The resulting data was used to calculate the kₒₙ with the KinExA 3000 software. koff was calculated by using the formula KD=koff/kₒₙ.

recombinant human IL-6 [2] = molecular target: T1, recombinant human IL-6; experiment: KinExA 3000
Protocol: (§2) The KinExA 3000 instrument, manufactured by Sapidyne, was used to measure binding kinetics. Briefly, human IL-6 was covalently coupled to alzactone beads and the binding of free IgG to the beads was detected on the instrument. […] For example, the chimeric anti-IL-6 antibody was used at a constant concentration of 5 pM and individual tubes were incubated with 0-200 pM of IL-6. Incubations for the other IgGs were set in a similar manner. After the incubation, free IgG in each equilibrated sample was determined on the KinExA 3000 instrument according to the manufacturer's instructions. KD values were determined by the KinExA 3000 software using the KinExA 3000 instrument, as described in more detail below.
as §1

IL-6/sIL-6R complex = molecular target: T2, IL-6/sIL-6R complex (human, UniProt P08887 20-358, limits assumed); experiment: EIA: sIL-6R coated, 200 ng/ml human IL-6, antibody dilutions from 10 ug/ml, anti-human IgG-HRP
T2 construct: Formed on the plate: sIL-6R coated at 10 ug/ml, then human IL-6 added at 200 ng/ml; also called sIL-6/sIL-6R complex; IL-6/IL-6R complex
T2 sequence (chain, as listed by the source limits assumed, chain 1 of 2): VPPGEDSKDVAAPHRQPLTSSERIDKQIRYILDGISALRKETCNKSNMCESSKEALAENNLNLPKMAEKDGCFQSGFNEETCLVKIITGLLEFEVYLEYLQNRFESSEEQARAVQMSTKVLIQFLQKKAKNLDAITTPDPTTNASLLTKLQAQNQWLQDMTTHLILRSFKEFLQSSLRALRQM
T2 sequence (P08887 20-358 limits assumed, chain 2 of 2): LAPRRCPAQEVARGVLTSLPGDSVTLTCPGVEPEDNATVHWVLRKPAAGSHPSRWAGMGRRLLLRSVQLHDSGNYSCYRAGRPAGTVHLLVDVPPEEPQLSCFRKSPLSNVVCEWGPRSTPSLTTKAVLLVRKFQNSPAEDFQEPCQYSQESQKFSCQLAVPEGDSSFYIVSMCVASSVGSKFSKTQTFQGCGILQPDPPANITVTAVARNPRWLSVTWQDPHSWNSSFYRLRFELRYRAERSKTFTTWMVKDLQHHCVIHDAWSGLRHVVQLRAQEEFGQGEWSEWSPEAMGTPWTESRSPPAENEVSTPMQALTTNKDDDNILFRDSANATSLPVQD
Protocol: Costar EIA plates (Corning/Costar, Acton, Mass.) (Catalog # 9018) were coated with sIL-6R (10 μg/ml in PBS, 100 μl/well) overnight at 4° C. The plates were washed with 0.15M saline containing 0.02% (v/v) Tween 20 and wells were blocked with 1% (w/v) BSA in PBS, 200 μl/well for one hour at room temperature. The wells were washed again then in the sequential format incubated with 200 ng/ml human IL-6 (100 μl/well) in PBS for one hour at room temperature. Antibody was added to all wells in 10-fold serial dilutions from a starting concentration of 10 μg/ml in 100 μl/well for one hour at room temperature. After washing, the wells were incubated with goat anti-human IgG (H+L)-HRP-linked, (10 μg/ml in PBS) for 30 minutes at room temperature. The wells were washed and 100 μl/well of citrate-phosphate substrates solution (0.1M Citric Acid and 0.2M Sodium Phosphate, 0.01% H₂O₂ and 1 mg/ml OPD) was added for 15 minutes at room temperature. The reaction was stopped by addition of 25 μl/well of 4N sulfuric acid and the OD₄₉₀ was read via an automated ELISA plate reader (Molecular Devices Spectromax Plus, Sunnyvale, Calif.).
In addition, AME-A9, AME-A16, AME-18a, AME-20b, AME-22a, and AME-23a can detect IL-6 bound to sgp80 (sIL-6R) in a dose dependent manner using EIA. […] However, preincubation of IL-6 and any of these anti hIL-6 monoclonal antibodies precludes the ability of sIL-6R to bind IL-6.

recombinant human IL-6 [3] = molecular target: T1, recombinant human IL-6; experiment: calculated, KinExA 3000
Protocol: as §2, §1

recombinant human IL-6 [4] = molecular target: T1, recombinant human IL-6; experiment: calculated from KD = koff/kon, KinExA 3000
Protocol: as §2, §1

recombinant human IL-6 [5] = molecular target: T1, recombinant human IL-6; experiment: KinExA 3000, equilibrium in solution, IgG at 1 pM with serially diluted human IL-6, 20 C
Protocol: as §2

recombinant human IL-6 [6] = molecular target: T1, recombinant human IL-6; experiment: ELISA: IgG dilutions captured on goat anti-human kappa, biotinylated IL-6 at 200 ng/ml, NeutrAvidin-alkaline phosphatase, O.D. 560 after 15 min
Protocol: The ELISA generally used Costar 3366 microtiter plates coated with a goat anti-human kappa antibody. Dilutions of Fab (or IgG) were incubated in the coated wells for 1 hr at 22° C. The wells were then washed with PBS, 0.1% Tween 20 and biotinylated IL-6 at 200 ng/ml was added for 1 hour. After washing, an alkaline phosphatase conjugate of NeutrAvidin was added and incubated for 1 hour at 22° C. A colorimetric substrate was added after extensive washing and the bound IL-6 was determined. A variation of this ELISA included an extended wash step in a beaker of PBS, 0.01% BSA at 37° C. after the biotinylated IL-6 incubation, e.g., an 18 hour extended wash step.

recombinant human IL-6 [7] = molecular target: T1, recombinant human IL-6; experiment: KinExA 3000, equilibrium in solution, IgG at 0.5 pM with serially diluted human IL-6, 20 C
Protocol: as §2

recombinant human IL-6 [8] = molecular target: T1, recombinant human IL-6; experiment: cell-based or functional assay
recombinant human IL-6 [9] = molecular target: T1, recombinant human IL-6; experiment: cell-based or functional assay; remark: listed apart in the source
[10] = molecular target: recombinant human IL-6 (human) (UniProt P05231); experiment: calculated from KD = koff/kon, KinExA 3000
Chain of recombinant human IL-6 (human) (P05231 30-212 limits assumed): as the sequence (chain, as listed by the source limits assumed, chain 1 of 2) above

[11] = molecular target: recombinant human IL-6 (human) (UniProt P05231); experiment: KinExA 3000
[12] = molecular target: recombinant human IL-6 (human) (UniProt P05231); experiment: calculated, KinExA 3000
[13] = molecular target: IL-6/sIL-6R complex (human) (UniProt P08887); experiment: ELISA: sIL-6R coated at 10 µg/ml, human IL-6 added at 200 ng/ml, antibody dilutions, detection with HRP-anti-human IgG, OD490
Chain of IL-6/sIL-6R complex (human) (chain, as listed by the source limits assumed, chain 1 of 2): as above
Chain of IL-6/sIL-6R complex (human) (P08887 20-358 limits assumed, chain 2 of 2): as the sequence (P08887 20-358 limits assumed, chain 2 of 2) above

[14] = molecular target: recombinant human IL-6 (human) (UniProt P05231); experiment: KinExA 3000, IgG at 200 pM mixed with 100-200 pM human IL-6, free IgG over time
[15] = molecular target: recombinant human IL-6 (human) (UniProt P05231); experiment: cell-based or functional assay
[16] = molecular target: recombinant human IL-6 (human) (UniProt P05231); experiment: cell-based or functional assay; remark: listed apart in the source
[17] = molecular target: recombinant human IL-6 (human) (UniProt P05231); experiment: ELISA: IgG dilutions captured on goat anti-human kappa, biotinylated IL-6 at 200 ng/ml, NeutrAvidin-alkaline phosphatase, O.D. 560 after 15 min
[18] = molecular target: recombinant human IL-6 (human) (UniProt P05231); experiment: KinExA 3000, equilibrium in solution, IgG at 5 pM with serially diluted human IL-6, 20 C

T1 sequence (P05231 30-212 limits assumed): as the sequence (chain, as listed by the source limits assumed, chain 1 of 2) above

| Binder | kon (recombinant human IL-6 [1]) [M⁻¹ s⁻¹] | Improvement Ratio of KD (as compared to chimeric ab) (recombinant human IL-6 [2]) [fold] | Improvement Ratio of kon (against chimeric antibody) (recombinant human IL-6 [2]) [fold] | binding result (IL-6/sIL-6R complex) | Improvement Ratio of koff (against chimeric antibody) (recombinant human IL-6 [3]) [fold] | koff (recombinant human IL-6 [4]) [s⁻¹] | Kd (recombinant human IL-6 [5]) [pM] | EC50 (read off the curve) (recombinant human IL-6 [6]) [µg/mL] | other results |
| --- | --- | --- | --- | --- | --- | --- | --- | --- | --- |
| AME-20b (antibody, V domains shown, Tested as IgG; also called 140) VH: EVQLVESGGGLVQPGGSLRLSCAASGFQFSSFAMSWVRQAPGKGLEWVAKISPGGSYTYYSDTVTGRFTISRDNAKNSLYLQMNSLRAEDTAVYYCARQLWGYYALDIWGQGTTVTVSS VL: EIVLTQSPATLSLSPGERATLSCSASISVSYMYWYQQKPGQAPRLLIYDMSNLASGIPARFSGSGSGTDFTLTISSLEPEDFAVYYCMQWSGYPYTFGGGTKVEIK | 4.7e+06 | 3.8 | 1 | binds | 3.5 | 3.7e-06 | 0.78 |  |  |
| AME-16 (antibody, V domains shown, Tested as IgG; also called AME-A16; 106) VH: EVQLVESGGGLVQPGGSLRLSCAASGFTFSSFAMSWVRQAPGKGLEWVAKISPGGSYTYYPDTVTGRFTISRDNAKNSLYLQMNSLRAEDTAVYYCARQLWGYYALDYWGQGTTVTVSS VL: EIVLTQSPATLSLSPGERATLSCSASSSVSYMYWYQQKPGQAPRLLIYDTSNLASGIPARFSGSGSGTDFTLTISSLEPEDFAVYYCSQWSGYPYTFGGGTKVEIK | 1e+06 | 3.6 | 0.22 | binds | 15.7 | 8.3e-07 | 0.83 | ~0.07 |  |
| AME-18a (antibody, V domains shown, Tested as IgG; also called 130) VH: EVQLVESGGGLVQPGGSLRLSCAASGFQFSPFAMSWVRQAPGKGLEWVAKISPGGSWTYYSDTVTGRFTISRDNAKNSLYLQMNSLRAEDTAVYYCARQLWGYYALDIWGQGTTVTVSS VL: EIVLTQSPATLSLSPGERATLSCSASSSVSYMYWYQQKPGQAPRLLIYDFSNLASGIPARFSGSGSGTDFTLTISSLEPEDFAVYYCMQWSGYPYTFGGGTKVEIK | 2e+07 | 25 | 4.4 | binds | 5.4 | 2.4e-06 |  | ~0.09 | Kd (recombinant human IL-6 [7]): 0.12 pM |
| AME-23a (antibody, V domains shown, Tested as IgG; also called 143) VH: EVQLVESGGGLVQPGGSLRLSCAASGFQFSSFAMSWVRQAPGKGLEWVAKISPGGSYTYYSDTVTGRFTISRDNAKNSLYLQMNSLRAEDTAVYYCARQLWGYYALDFWGQGTTVTVSS VL: EIVLTQSPATLSLSPGERATLSCSASYSVSYMYWYQQKPGQAPRLLIYDMSNLASGIPARFSGSGSGTDFTLTISSLEPEDFAVYYCMQWSGYPYTFGGGTKVEIK | 7.4e+06 | 500 | 1.6 | binds | 295 | 4.4e-08 | 0.006 |  |  |
| AME-19a (antibody, V domains shown, Tested as IgG; also called 136; human engineered anti-IL-6 (clone AME-19a) antibody) VH: EVQLVESGGGLVQPGGSLRLSCAASGFTFSPFAMSWVRQAPGKGLEWVAKISPGGSWTYYSDTVTGRFTISRDNAKNSLYLQMNSLRAEDTAVYYCARQLWGYYALDIWGQGTTVTVSS VL: EIVLTQSPATLSLSPGERATLSCSASISVSYMYWYQQKPGQAPRLLIYDMSNLASGIPARFSGSGSGTDFTLTISSLEPEDFAVYYCMQWSGYPYTFGGGTKVEIK | 5.5e+06 | 81.1 | 1.2 |  | 65 | 2e-07 |  |  | EC50, growth of IL-6 dependent 7TD1 cells with 500 pg/ml human IL-6 (ATPlite) (recombinant human IL-6 [8]): 0.00041 µg/mL; EC50, growth of IL-6 dependent 7TD1 cells with 500 pg/ml human IL-6 (ATPlite) (recombinant human IL-6 [9]): 2.7 pM; improvement of EC50 against CNTO328, 7TD1 cell assay (recombinant human IL-6 [9]): 10 fold; Kd (recombinant human IL-6 [7]): 0.037 pM |
| AME-A9 (antibody, V domains shown, Human engineered monoclonal antibody, detected with anti-human IgG; also called 104) VH: EVQLVESGGGLVQPGGSLRLSCAASGFTFSSFAMSWVRQAPGKGLEWVAKISSGGSYTYYPDTVTGRFTISRDNAKNSLYLQMNSLRAEDTAVYYCARQLWGYYALDYWGQGTTVTVSS VL: EIVLTQSPATLSLSPGERATLSCSASSSVSYMYWYQQKPGQAPRLLIYDTSNLASGIPARFSGSGSGTDFTLTISSLEPEDFAVYYCSQWSGYPYTFGGGTKVEIK |  |  |  | binds |  |  |  | ~0.09 |  |
| AME-22a (antibody, V domains shown, Tested as IgG; also called 150) VH: EVQLVESGGGLVQPGGSLRLSCAASGFQFSPFAMSWVRQAPGKGLEWVAKISPGGSWTYYPDTDTGRFTISRDNAKNSLYLQMNSLRAEDTAVYYCARQLWGYYALDFWGQGTTVTVSS VL: EIVLTQSPATLSLSPGERATLSCSASYSVSYMYWYQQKPGQAPRLLIYDFSNLASGIPARFSGSGSGTDFTLTISSLEPEDFAVYYCMQWSGYPYTFGGGTKVEIK | 6e+06 | 16.7 | 1.3 |  | 11.8 | 1.1e-06 | 0.18 |  |  |
| chimeric anti-IL-6 antibody CNTO 328 (antibody, INN chains, looked up, V domains shown, biotinylated in competition ELISA) VH: EVQLVESGGKLLKPGGSLKLSCAASGFTFSSFAMSWFRQSPEKRLEWVAEISSGGSYTYYPDTVTGRFTISRDNAKNTLYLEMSSLRSEDTAMYYCARGLWGYYALDYWGQGTSVTVSS VL: QIVLIQSPAIMSASPGEKVTMTCSASSSVSYMYWYQQKPGSSPRLLIYDTSNLASGVPVRFSGSGSGTSYSLTISRMEAEDAATYYCQQWSGYPYTFGGGTKLEIK |  |  |  |  |  |  |  |  | koff [10]: 1.3e-05 s⁻¹; Improvement Ratio of KD (as compared to chimeric ab) [11]: 1 fold; Improvement Ratio of kon (against chimeric antibody) [11]: 1 fold; Improvement Ratio of koff (against chimeric antibody) [12]: 1 fold; EC50 (read off the curve) [13]: 0.01 µg/mL; kon [14]: 4.4e+06 M⁻¹ s⁻¹; EC50, growth of IL-6 dependent 7TD1 cells with 500 pg/ml human IL-6 (ATPlite) [15]: 27 pM; EC50, growth of IL-6 dependent 7TD1 cells with 500 pg/ml human IL-6 (ATPlite) [16]: 0.00409 µg/mL; EC50 (read off the curve) [17]: 0.1 µg/mL; Kd [18]: 3 pM |
